These results are taken from publication doi:10.1101/2024.08.15.608188, “Myosin forces elicit an F-actin structural landscape that mediates mechanosensitive protein recognition” (bioRxiv, 2024).

This series deals with the molecule itself. The series is described as follows: cryo-EM structure; dual motor condition (surface-anchored myosin-5 and myosin-6, 1 μM ATP) on holey carbon grids; 0.6 μM F-actin, 1 μM α-catenin ABD applied in Motility Buffer (20 mM MOPS pH 7.4, 5 mM MgCl2, 0.1 mM EGTA, 1 mM DTT) for 30 s, 25 °C; sub-saturating α-catenin; consensus and 3DVA-sorted reconstructions.

B1: C-terminal actin-binding domain (ABD) of human α-catenin (AA 664-906) (domain or fragment, UniProt P35221 664-906, looked up)
chain: IAGQSARAIMAQLPQEQKAKIAEQVASFQEEKSKLDAEVSKWDDSGNDIIVLAKQMCMIMMEMTDFTRGKGPLKNTSDVISAAKKIAEAGSRMDKLGRTIADHCPDSACKQDLLAYLQRIALYCHQLNICSKVKAEVQNLGGELVVSGVDSAMSLIQAAKNLMNAVVQTVKASYVASTKYQKSQGMASLNLPAVSWKMKAPEKKPLVKREKQDETQTKIKRASQKKHVNPVQALSEFKAMDSI
notes: Tags were removed with TEV protease; also called α-catenin ABD; αE-catenin ABD; source: E. coli Rosetta2(DE3), purified (Ni-NTA, TEV cleavage, anion exchange, size exclusion); not shown: 6XHis, N-terminal, cleaved; strep tag, N-terminal, cleaved
As for B1, the binding result is listed as “binds”.
